Measurements published in article PMC9050680, “Interaction of human CRX and NRL in live HEK293T cells measured using fluorescence resonance energy transfer (FRET)” (Scientific Reports, 2022).

B1: human CRX with mCherry or EGFP fused to the N-terminus (near the homeodomain) (natural protein)
chain: not shown
notes: CRX, human, cone-rod homeobox protein; coding region cloned in derivatives of pEGFP-N1 with an NLS and a linker to EGFP or mCherry; mCRX (mCherry, acceptor) and eCRX (EGFP, donor) differ only in the fluorophore and are written as one molecule; mCRX + eCRX is a row of m1 with itself; also called mCRX; eCRX; source: HEK293T, transiently transfected, in live cells (fixed cells for acceptor …)
B2: human NRL with mCherry or EGFP fused to the N-terminus (near the activation domain) (natural protein)
chain: not shown
notes: NRL, human, neural retina-specific leucine zipper protein; coding region cloned in derivatives of pEGFP-N1 with an NLS and a linker to EGFP or mCherry; mNRL (mCherry, acceptor) and eNRL (EGFP, donor) differ only in the fluorophore and are written as one molecule; The discussion speaks of (Gly)5 linkers between the fluorophores and NRL; also called mNRL; eNRL; source: HEK293T, transiently …

Molecular target: the molecule itself
Test: FRET or BRET; FC-FRET: flow cytometry, sensitized emission (three-cube N_FRET, apparent FRET efficiency) in live transiently cotransfected HEK293T cells suspended in PBS; donor EGFP, acceptor mCherry; population means and dependence on expression level compared with unlinked mCh + eG

Protein | N_FRET (mean apparent FRET efficiency)
B1 | 3.3%
B2 | 2.5%
